T1: Dip1 (S. pombe WISH/DIP/SPIN90 family nucleation promoting factor) (S. pombe, UniProt O74771 1-374)
T1 sequence (looked up): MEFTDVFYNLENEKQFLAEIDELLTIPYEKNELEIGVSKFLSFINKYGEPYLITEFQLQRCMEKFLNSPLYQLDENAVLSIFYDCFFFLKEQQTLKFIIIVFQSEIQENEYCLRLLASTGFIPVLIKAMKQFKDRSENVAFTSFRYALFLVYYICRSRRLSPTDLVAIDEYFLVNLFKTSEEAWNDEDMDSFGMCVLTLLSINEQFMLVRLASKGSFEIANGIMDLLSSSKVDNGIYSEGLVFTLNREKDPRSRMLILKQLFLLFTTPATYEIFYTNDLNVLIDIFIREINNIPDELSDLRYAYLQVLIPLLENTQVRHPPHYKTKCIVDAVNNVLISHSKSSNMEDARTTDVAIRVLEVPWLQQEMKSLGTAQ

B1: ARPC2 subunit of S. pombe Arp2/3 complex (natural protein)
chain: MLSLDYNNIFIYELLTERFSSENPSSIDQVVTDFDGVTFHISTPEEKTKILISLSMKCYPELVNYGTLDLLKQIYGAYVHEPEMGYNFSILIDLQQLPATDEEKEQLAMSISMLKRNVLAAPFHRAFTKQAELADLARKDPENAPMLDKQATSQELMAIHYRDEETIVLWPEHDRVTVVFSTKFREETDRIFGKVFLQEFVDARRRPAIQTAPQVLFSYRDPPLEIRDIQGIQKGDDFGFVTFVLFERHFTPQNREDCISHIQVFRNTLHFHIKASKAYMHQRMRKRVADFQKVLNRAKPDVELERKTATGRSFVRA

Experiments:
[1] = target: T1, Dip1 (S. pombe WISH/DIP/SPIN90 family …); assay: cryo-EM structure
[2] = target: B1; assay: cryo-EM structure

binding result [1] | binding result [2] | Binder
binds | binds | ARPC4 subunit of S. pombe Arp2/3 complex (natural protein) not shown
binds | – | B1

Reference: publication PMC8717925 (Nature structural & molecular biology, 2020)
